Experimental data reported in patent US20200109211A1.

Target: human CD160 (CD160 GPI isoform) on cells (human) (UniProt O95971)
Experiment: flow cytometry, percentage of labelled YT2C2 NK cells, 0.39-50 nM; the text means weaker binding

Chain of human CD160 (CD160 GPI isoform) on cells (human) (O95971 25-159 limits assumed): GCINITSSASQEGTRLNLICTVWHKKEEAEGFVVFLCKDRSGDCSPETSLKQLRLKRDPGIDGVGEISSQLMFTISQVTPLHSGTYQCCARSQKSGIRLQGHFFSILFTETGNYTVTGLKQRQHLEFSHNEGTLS

B1: Fab CH1 IgG1 D12 (Fab)
heavy: QVQLVQSGAEVKKPGASVKVSCKASGYTFSDFWMQWIRQAPGQGLEWIGAIYPGDDDARVTQKFRGRATLTADKSTSTAYMELSSLRSEDTAVYYCARRGIAAVVGGFDYWGQGTTLTVSSASTKGPSVFPLAPSSKSTSGGTAALGCLVKDYFPEPVTVSWNSGALTSGVHTFPAVLQSSGLYSLSSVVTVPSSSLGTQTYICNVNHKPSNTKVDKRV
light: EIVLTQSPATLSLSPGERATLSCRASQSISNHLHWYQQKPGQAPRLLIKYASQSISGIPARFSGSGSGTDFTLTISSLEPEDFAVYFCQQSNSWPLTFGGGTKVEIKRTVAAPSVFIFPPSDEQLKSGTASVVCLLNNFYPREAKVQWKVDNALQSGNSQESVTEQDSKDSTYSLSSTLTLSKADYEKHKVYACEVTHQGLSSPVTKSFNRGEC
For B1, the EC50, factor against H7 IgG4 (ELB01101) was 2 fold.
